Assay results from a protein production outcome set (Wang et al. 2014).

Assay: label from the status in PepcDB records

Sequence | protein production
MTPIQDHPLRFALANELHARPFPISRAPCTVAYLAVKQPDAAVGRDRKADRAHLIDLLDRHGAPHPQPGATHYAGQIGRHWLKWESHTEFVTYTAFATGVSDRPFNPADFEVFPPDWLAAAPGQRVTSALLRVEEQLPEADIVAALADWFVPESLAVAHVLDRAAVAAGDFRIDPAGHMRFAVFVAPDTGERRIGRIIQRLCEIETYKAMSMLGFARVKALGPKLGELDSGLTGLMVKMTDGGHPAEDLLPQLLSTSAELETMAARSEFRLGATGAYEAIVNQRIASLREERFGGRQTFADFMLRRYEPAMRTVKSTERRLKRLSDRAIRAGDLLRTRVDVERSAQNQALLESMDRRADLALRLQHTVEGLSVVAVSYYAVSLVSAFLLPLSEWYGVDKKALIALVTLPVVGLVWLGIRRIRKKLH | failed
MTPPIAADYTAQAVSTDTIGYLHSTESGAGVDGPGMRFVFFVSGCQFRCLYCHNPDTWKLHNGRQVSVEQALSEVAPYARFLKFAGGVTISGGEPLMQHEFVGELFHEIKQRFGLHTALDTQGFLHERVSDAWFDDVDLVMLDIKHSDPEKYQALTGQPLQPTLDFALRLKRLRKKMWIRYVLVPGLTDGDADIEKLADFAASLGDVVERVEVLPFHQLGKDKWAQLGMEYQLNDTPIPTAEQAAHARALFASRGLKVTLEHHHHHH | not failed
MTPQFRALLVHLFTATGAVFAMLAMLAAVDAKWDLMFLWLVVAFFVDGLDGPMARRYHVKTYAPEFDGVLLDLIIDYLTYVFIPAFALFKSGLMDGWTGWLAIIIITFASAMYFADTRMKTKDNSFSGFPGCWNMVVLVIFALEPNFWVSLVLVTVLAVSMFLPLKFVHPVRTERWRAITLPMALAWTFFAGWAAWVGFHPESWAHWGLVVTSLYLIFAGIAQMVIPEKDTASPF | failed
MTPSKTTLVERCYKYIMSNEKNWSPYTVINRKSWVKNYIEPFFKDTKLIDINPVLIQTFINTTFNNCTFSSSKIRYRFISSVLKEAYRLREINENPCDFVKLPLEHHHHHH | failed
MTPVCAWIGSPGAKAQLSFAGRGHSTAKRRRGPAGEPAVPGEALPGARGSLKAHPKPWAAAMWARGCLHHIRVWFSWSQQGSGNGRSGWERLAREARGLWQLWCLPGTPNSSPLQTDM | failed
MTPYDIKDPDVRRRRFRPIPVRMLVPNVITLLAICAGLTSIRLSIEGRMSLAVYAIVFAAALDGIDGRIARMIKGQSKFGAELDSLADFVNFGVAPGLMLYFWQLHELGNAGWIAAMVFAISGGLRLARFNATMDDPNKPAFAANFFTGVPAPAGAITVLLPIYVAFLDLGRAPAAVTAAYTLLIAFLMVSRLPVFSGKTKRMRVPPELVLPAFVAVIVFIAILIAYPWHVLSIGTVLYLLALPLGYKSYRDQARAMDAATPAGGEISSPPSAPTLANLSEPPHDDDRPGRLH | failed
MTQAFSRVRFIMTQPSHPGNVGSAARAIKTMGFGELVLVAPRFPDMTAQPEAVALASGALDVLERAAVHDTLEEALAPVTLAFALTARVRDLGPPPCDIREAAGLARRHLDDTEAGVVAIVLGTERAGLTNAQIELCHRICHIPANPQYSSLNVAQALQLAAWELRYALLAGTGQPLLPASSAQQANPGAAPADGAAVQALLAHWEQALVAVGFLDPAHPKKLMPRMKHLLTRSALSRDEVDMLRGVCTAMIAPNRPK | failed
MTQFKLIGFDLDGTLVNSLPDLALSINSALKDVNLPQASENLVMTWIGNGADVLSQRAVDWACKQAEKELTEDEFKYFKRQFGFYYGENLCNISRLYPNVKETLEALKAQGYILAVVTNKPTKHVQPILTAFGIDHLFSEMLGGQSLPEIKPHPAPFYYLCGKFGLYPKQILFVGDSQNDIFAAHSAGCAVVGLTYGYNYNIPIAQSKPDWIFDDFADILKITQ | not failed
MTQIIKIDPLNPEIDKIKIAADVIRNGGTVAFPTETVYGLGANAFDGNACLKIFQAKNRPVDNPLIVHIADFNQLFEVAKDIPDKVLEIAQIVWPGPLTFVLKKTERVPKEVTAGLDTVAVRMPAHPIALQLIRESGVPIAAPSANLATRPSPTKAEDVIVDLNGRVDVIIDGGHTFFGVESTIINVTVEPPVLLRPGPFTIEELKKLFGEIVIPEFAQGKKEAEIALAPGMKYKHYAPNTRLLLVENRNIFKDVVSLLSKKYKVALLIPKELSKEFEGLQQIILGSDENLYEVARNLFDSFRELDKLNVDLGIMIGFPERGIGFAIMNRARKASGFSIIKAISDVYKYVNI | not failed
MTQLPPAIFLMGPTAAGKTDLAIELTKVLPCELISVDSALVYRGMDIGTAKPSRELLAQFPHRLIDILDPAESYSAADFRTDALAAMADITARGKIPLLVGGTMLYYKALLEGLADMPAADPQVRAELEEEAARLGWQALHDQLAAVDPESAARIHPNDPQRLTRALEVYRVSGLTMTAHRQRQLAQSTEAGASGRSQLPYTVANLAIAPANRQVLHQRIAQRFTQMLEQGFIDEVVALRSRSDLHAGLPSIRAVGYRQVWDHLDGKLTSAEMQERGIIATRQLAKRQFTWLRSWADLQWLDSLDCDNLPRALKYLGTISILSLEHHHHHH | failed
MTQLQISLLLTATISLLHLVVATPYEAYPIGKQYPPVARVNESFTFQISNDTYKSSVDKTAQITYNCFDLPSWLSFDSSSRTFSGEPSSDLLSDANTTLYFNVILEGTDSADSTSLNNTYQFVVTNRPSISLSSDFNLLALLKNYGYTNGKNALKLDPNEVFNVTFDRSMFTNEESIVSYYGRSQLYNAPLPNWLFFDSGELKFTGTAPVINSAIAPETSYSFVIIATDIEGFSAVEVEFELVIGAHQLTTSIQNSLIINVTDTGNVSYDLPLNYVYLDDDPISSDKLGSINLLDAPDWVALDNATISGSVPDELLGKNSNPANFSVSIYDTYGDVIYFNFEVVSTTDLFAISSLPNINATRGEWFSYYFLPSQFTDYVNTNVSLEFTNSSQDHDWVKFQSSNLTLAGEVPKNFDKLSLGLKANQGSQSQELYFNIIGMDSKITHSNHSANATSTRSSHHSTSTSSYTSSTYTAKISSTSAAATSSAPAALPAANKTSSHNKKAVAIACGVAIPLGVILVALICFLIFWRRRRENPDDENLPHAISGPDLNNPANKPNQENATPLNNPFDDDASSYDDTSIARRLAALNTLKLDNHSATESDISSVDEKRDSLSGMNTYNDQFQSQSKEELLAKPPVQPPESPFFDPQNRSSSVYMDSEPAVNKSWRYTGNLSPVSDIVRDSYGSQKTVDTEKLFDLEAPEKEKRTSRDVTMSSLDPWNSNISPSPVRKSVTPSPYNVTKHRNRHLQNIQDSQSGKNGITPTTMSTSSSDDFVPVKDGENFCWVHSMEPDRRPSKKRLVDFSNKSNVNVGQVKDIHGRIPEML | failed
MTQLQQSVIESQPGKLSDYLGHTRRNRFSIRLFSGLIGFILVLAVMATGYWLVFASDRYVSEASVIIRKTDSVTAPSFDLSMLIAGVAGVNRADQLLLREYLLSVDMLKKLDTELDLHAHYSDEHYDLLSRMWLKDMEWFHRHYLSRVSIEYDDYAGVLRINAQAYDPEIARAISNLLVREGERYMNQISHELAETQVSFLTTQVNLAQLRFQQVRQKLLAYQNKKGLLSPQATVESLNTLIAKLEEQRAQLKTQLASLPRTLDRNHPNLVMLRQSLAAIDRQITDEKAKLANPTGKTLNITMEEFQRLEMEVTFAQELYKAALTALEKGRIDATRMLDKVSVLQAPTLPEYPMEPRRIYNTLVTLLFALMLAGILKLLEGIILDHVD | failed
